Here are results for two molecules from publication PMC8495455, “Discovery of a transdermally deliverable pentapeptide for activating AdipoR1 to promote hair growth” (EMBO Molecular Medicine, 2021).

In assay [1] the test system is C57BL/6 (WT) mice. The experiment in a line: Mouse hair cycle modulation, hair cycle score, WT mice. The format is in vivo. As to conditions: topical. The text has this:
(§1) First, we topically applied P5 and minoxidil as a positive control (Messenger & Rundegren, [2004]) on wildtype (WT) mouse. […] Overall, the hair cycle score was higher in the P5‐treated mice than vehicle‐treated mice (Fig 4B). […] Collectively, P5 induces anagen hair cycle in vivo.
(§2) For the hair cycle modulation experiment, Adipoq ^−/− (stock #008195; JAX) (Ma et al, [2002]), Adipor1 ^−/− (Yamauchi et al, [2007]; Okada‐Iwabu et al, [2013]), or C57BL/6 (KOATECH) female mice was used (Müller‐Röver et al, [2001]). They were housed (up to four animals per cage; 23 ± 2°C, 8:00–20:00, 12 h/12 h light/dark cycle). Mice were fed a standard chow diet and provided food and water ad libitum. Mice were randomly allocated and shaved dorsally at 7.5 weeks of age. Only mice in telogen were included for the further experiments (Müller‐Röver et al, [2001]). From 8 weeks of age, the shaved dorsal area was treated with vehicle control (ethanol and polyethylene glycol, 30% and 70% v/v), P5 (0.1 mM), or minoxidil (3%) every day. The mouse hair growth score (a value from 0 to 100 based on the skin pigmentation and hair shaft density) was monitored and documented at designated days with the experimenters being blind to the conditions, following a previous study (Chai et al, [2019]). A higher score corresponds to a transition from telogen to anagen. On day 35, we obtained dorsal cutaneous tissue for histological analysis: anagen induction scores (calculated using an assigned arbitrary score; telogen = 1, anagen I–VI = 2–7) (Müller‐Röver et al, [2001]).

The subject of assay [2] is C57BL/6 (WT) mice. The experiment in a line: Mouse hair cycle modulation, histology and anagen induction score, WT mice. The format is in vivo.
From the text: as §1
(§3) Paraffin‐embedded mouse cutaneous back tissue was sectioned (4 μm thickness) and stained with hematoxylin and eosin. For IF staining, human ORS cells cultured in FiTC‐P5, sectioned paraffin‐embedded human HFs (7 μm thickness), and sectioned paraffin‐embedded mouse cutaneous dorsal tissue or human skin tissue (5 μm thickness) were incubated at 4°C overnight with the following primary antibodies diluted in the diluent reagent (Invitrogen): phospho‐AMPK (#2535, 1:100; Cell Signaling), Ki‐67 (#M7240, 1:200; Dako), versican (#ab177480, 1:200; Abcam), or AdipoR1 antibody (#ab126611, 1:200; Abcam). After three washes with PBS, the slides were incubated with the secondary Alexa Fluor 488‐labeled anti‐mouse or rabbit IgG antibody (#ab150077, #ab150113, 1:200; Invitrogen), or Alexa Fluor 594‐labeled anti‐rabbit IgG antibody (#a11012, 1:200; Invitrogen) at 25°C for 1 h. Nuclei were counterstained with 4′,6‐diamidino‐2‐phenylindole (DAPI; #D1306, 1:1,000; Invitrogen). Microscopic observations were performed with a Nikon Eclipse Ci‐L microscope (Nikon). IF intensity was observed and recorded with a Nikon Eclipse Ni‐E fluorescence microscope (Nikon).
as §2

In assay [3] the test system is AMPK phosphorylation through AdipoR1 in DP cells. The experiment in a line: Western blot p-AMPK in AdipoR1 siRNA-transfected DP cells. The format is cell-based, human. The text has this:
(§4) Following the confirmation of the molecular interaction between AdipoR1 and P5, we evaluated the activation of the intracellular signaling pathway by P5. We investigated whether APN treatment on ORS and DP cells could activate AMPK or ERK signaling pathways, which are previously known to be downstream effectors of AdipoR1 (Mao et al, [2006]; Deepa & Dong, [2009]; Shibata et al, [2012]). […] Next, for determination of whether both P5 and APN mediates the phosphorylation of AMPK through AdipoR1 in ORS and DP cells, the cells were transfected with AdipoR1 siRNA (Appendix Fig S1). […] Collectively, P5 activates AMPK signaling pathway through AdipoR1 in ORS and DP cells in vitro.
(§5) All transfections were performed using Lipofectamine 2000 following the manufacturer’s instructions (#11668019; Thermo Fisher). Human DP and ORS cells were cultured without antibiotics until reaching 50% confluency. AdipoR1 or scrambled siRNA (Bioneer) was used. The culture medium was changed 6 h after transfection, and the cells were incubated for another 24 h before subsequent analyses.
(§6) Human ORS and DP cells or skin tissue were lysed (RIPA lysis buffer; #20‐188; Merck Millipore). […] Antibody‐antigen complexes detected by enhanced chemiluminescent substrate (Thermo Fisher) were captured and quantified by Amersham imager 680 systems (GE Healthcare).

The test system of assay [4] is ERK phosphorylation in DP cells. Put plainly: Western blot p-ERK1/2, DP cells. In kind it is cell-based, human.
From the text: as §4
(§7) Human ORS and DP cells or skin tissue were lysed (RIPA lysis buffer; #20‐188; Merck Millipore). The obtained protein was then separated by 8% SDS–PAGE and transferred to a polyvinylidene fluoride membrane (Amersham). The protein transferred membranes were incubated overnight with the specific antibodies. […] Antibody‐antigen complexes detected by enhanced chemiluminescent substrate (Thermo Fisher) were captured and quantified by Amersham imager 680 systems (GE Healthcare).

Assay [5] deals with matrix cells of human HF bulbs. The experiment in a line: IF staining Ki-67 of ex vivo cultured HF bulb. As to conditions: APN 10μg/ml, ex vivo cultured HF bulb; individual HFs, n = 8. The format is cell-based.
From the text: We next investigated whether P5 can reproduce the effects of APN on hair growth promotion ex vivo (Won et al, [2012]) using ex vivo human HF organ culture model. […] The Ki‐67‐positive cell portion of the matrix area in the P5‐treated HFs was higher than that in the vehicle‐treated group (Fig 3E).
as §3

For assay [6], the system named is AMPK phosphorylation through AdipoR1 in ORS cells. Put plainly: Western blot p-AMPK in AdipoR1 siRNA-transfected ORS cells. The format is cell-based, human.
From the text: as §4, §5, §6

Assay [7] concerns ERK phosphorylation in ORS cells. The experiment in a line: Western blot p-ERK1/2, ORS cells. In kind it is cell-based, human.
From the text: as §4, §7

The subject of assay [8] is human scalp HFs. As to conditions: ref Won et al, [2012]; cited from earlier work. The source says:
However, it is not well understood about the underlying action mechanism of APN on hair growth promotion and how to utilize this endogenous protein as clinically applicable drug forms (Otvos, [2019]).

Assay [9] concerns AMPK phosphorylation in ORS cells. The experiment in a line: Western blot p-AMPK, ORS cells. In kind it is cell-based, human. As to conditions: P5 0 - 50 μM, APN 2.5 μg/ml.
From the text: as §4, §7

Assay [10] has as its system AMPK phosphorylation in DP cells. Put plainly: Western blot p-AMPK, DP cells. As to conditions: P5 0 - 50 μM, APN 2.5 μg/ml. The format is cell-based, human.
From the text: as §4, §7

Several values for one entry are separate records, joined by “and”; a condition that tells them apart may be missing. Identical values can stand only once.

With `Nc1cc(N2CCCCC2)nc(N)[n+]1[O-]` [minoxidil, reference compound], the “Gross morphology of dorsum” value in assay [1] (day 14) is “obvious pigmentation and hair”; in assay [1] (day 35), “manifested a black hair coat”. Besides, the “Histological examination of HFs” value in [2] (H&E) is recorded as “anagen HFs were noticeable”. Besides, in assay [2] (One-way ANOVA with Tukey's test), the “Anagen induction scores vs vehicle” value is “significantly higher”.

B1: APN: adiponectin protein, positive control (protein, UniProt Q15848 19-244, looked up)
Adiponectin: ETTTQGPGVLLPLPKGACTGWMAGIPGHPGHNGAPGRDGRDGTPGEKGEKGDPGLIGPKGDIGETGVPGAEGPRGFPGIQGRKGEPGEGAYVYRSAFSVGLETYVTIPNMPIRFTKIFYNQQNHYDGSTGKFHCNIPGLYYFAYHITVYMKDVKVSLFKKDKAMLFTYDQYQENNVDQASGSVLLHLEVGDQVWLQVYGEGERNGLYADNDNDSTFTGFLLYHDTN
For the molecule B1, in assay [3], the “p-AMPK intensity after AdipoR1 siRNA transfection, DP cells” value is recorded as “intensity was reduced”. Moreover, the “Phosphorylation of ERK, DP cells” value in [4] is recorded as “no effect on the phosphorylation of ERK”. Also, the “Numbers of Ki-67-positive cells normalized to DAPI-stained cells” value in [5] was 0.29 and 0.31 and 0.23 and 0.25 and 0.22 and 0.21 and 0.35 and 0.28. Also, the “p-AMPK intensity after AdipoR1 siRNA transfection, ORS cells” value in assay [6] was “intensity was reduced”. Also, the “Phosphorylation of ERK, ORS cells” value in assay [7] was “no effect on the phosphorylation of ERK”. In addition, the “Hair growth ex vivo” value in assay [8] is “promotes hair growth ex vivo effectively”. Besides, the “Phosphorylation of AMPK, ORS cells” value in [9] was “phosphorylation of AMPK was observed”. The “Phosphorylation of AMPK, DP cells” value in [10] is “phosphorylation of AMPK was observed”.
